Measurements reported in patent publication US20250161419A1, “SERPIN PEPTIDES AND METHODS OF USING THE SAME” (SERPIN PHARMA, LLC, priority 2022, published 2025).

Columns and labels:
[1] = system: capsaicin induced acute pain-related behavior in mice; test: Intraplantar capsaicin model of acute nociception; type: in vivo, mouse; conditions: male mice; SP163M 2 μg/g s.c. or EI-tPA 2 μg/g i.v. 1 h before capsaicin
Experimental: For the capsaicin studies, male (n=41) and female (n=37) mice were acclimated to the behavior testing facility for at least 1 h. Capsaicin was dissolved in 20% (2-hydroxypropyl)-β-cyclodextrin (Sigma-Aldrich, St. Louis, MO, USA) solution. […] Subsequently, 10 μl of 2 μg/μl capsaicin solution was injected into the plantar area of left hind paw. Immediately after capsaicin injection, mice were placed in a plexiglass box. Two observers, blinded to treatments, recorded the time spent licking and flinching the left hind paw over 10 min.

[2] = system: phospho-ERK1/2; test: Cell signaling analysis in PC12 cells, immunoblot of phospho-ERK1/2; type: cell-based, rat; conditions: 48 h after transfection
Experimental: Cell signaling analysis: Rat PC12 cells were purchased from ATCC (CRL-1721). PC12 cells were maintained in high glucose DMEM (Gibco, USA) containing 10% heat-inactivated FBS (Gibco, USA), 5% HyClone heat-inactivated horse serum (Cytiva, USA), penicillin (100 units/ml) and streptomycin ([…]) in 6-well plates that were pre-coated with 0.01 mg/ml type IV collagen (Sigma-Aldrich, St. Louis, MO, USA). Cells were transferred to serum-free medium (SFM) 4 h prior to adding effectors, and then treated with SP163M (2.4, 24 or 240 nM); EI-tPA (12 nM), NGF (0.36 nM), or vehicle (PBS) for 10 min. In some cases, cells were pre-incubated with the competitive antagonist of LRP1, GST-RAP (150 nM) for 15 min or electroporated using the Rat Neuron Nucleofector Amaxa Kit (Lonza Biosciences) and incubated with siRNA to silence LRP1 expression (siLRP1; M-094191-01-0010, Dharmacon) for 48 h. Control cells were transfected with non-targeting control (NTC) siRNA (NTC; D-001810-10-05, Dharmacon). […] Equal amounts of protein from cell lysates (20 μg), as determined by BCA Protein Assay (ThermoFisher Scientific, Waltham, MA, USA), were subjected to 10% SDS-PAGE and electro-transferred to nitrocellulose membranes. […]

B1: EI-tPA: Recombinant human enzymatically inactive tissue-type plasminogen activator, known LRP1 agonist (protein)
chain: SYQVICRDEKTQMIYQQHQSWLRPVLRSNRVEYCWCNSGRAQCHSVPVKSCSEPRCFNGGTCQQALYFSDFVCQCPEGFAGKCCEIDTRATCYEDQGISYRGTWSTAESGAECTNWNSSALAQKPYSGRRPDAIRLGLGNHNYCRNPDRDSKPWCYVFKAGKYSSEFCSTPACSEGNSDCYFGNGSAYRGTHSLTESGASCLPWNSMILIGKVYTAQNPSAQALGLGKHNYCRNPDGDAKPWCHVLKNRRLTWEYCDVPSCSTCGLRQYSQPQFRIKGGLFADIASHPWQAAIFAKHRRSPGERFLCGGILISSCWILSAAHCFQERFPPHHLTVILGRTYRVVPGEEEQKFEVEKYIVHKEFDDDTYDNDIALLQLKSDSSRCAQESSVVRTVCLPPADLQLPDWTECELSGYGKHEALSPFYSERLKEAHVRLYPSSRCTSQHLLNRTVTDNMLCAGDTRSGGPQANLHDACQGDSGGPLVCLNDGRMTLVGIISWGLGCGQKDVPGVYTKVTNYLDWIRDNMRP
[1]
  capsaicin induced acute pain-related behavior (time spent licking over 10 min): blocked the capsaicin induced acute pain-related behavior
[2]
  activation of ERK1/2 in cells transfected with LRP1-specific siRNA: ERK1/2 was not activated
  activation of ERK1/2 in cells transfected with NTC siRNA: robustly activated ERK1/2
